This passage reports 55% DBC results from patent US20170327535A1.

The target in the assay is aTNFa-Fab (Fab fragment of Infliximab, Remicade). Description: dynamic binding capacity on a 1 mL-gel column, 1 mg/mL aTNFa-Fab at […], 55% breakthrough.

B1: LB5t-Wild.4d (four connected B5 domains of PpL312), immobilized on agarose carrier (protein)
chain: KEETPETPETDSEEQVTIKENIYFEDGTVQTATFKGTFAEATAEAYRYADLLSKEHGKYTADLEDGGYTINIRFAGKEKTPEEPKEQVTIKENIYFEDGTVQTATFKGTFAEATAEAYRYADLLSKEHGKYTADLEDGGYTINIRFAGKEKTPEEPKEQVTIKENIYFEDGTVQTATFKGTFAEATAEAYRYADLLSKEHGKYTADLEDGGYTINIRFAGKEKTPEEPKEQVTIKENIYFEDGTVQTATFKGTFAEATAEAYRYADLLSKEHGKYTADLEDGGYTINIRFAGKKVDEKPEEC
modifications: coupled to maleimide-activated (EMCH) NHS Activated Sepharose 4 Fast Flow through a reactive amino acid residue
In turn, B1 showed a 55% DBC of 48.6 mg/mL/gel.
